Results from the supplement of paper PMC10567573.

B1: SPOPL (parent)
chain: YTGRAPNLDKMADNLLAAADKYAL

Variants of: B1
Assay: protein stability index of a GFP-peptide fusion (GPS, HEK-293T) (PSI 1-6); higher = more stable
Conditions: c terminus: a fixed tail appended
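Also: lentivirally expressed fusions sorted by FACS into six bins by GFP to DsRed ratio, PSI derived from sequencing read proportions per bin multiplied by bin number.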

Variant | protein stability index
YTGRAPNLHKMADNLLAAADKYAL [D9H] | 2.17
YTGRAPNLCKMADNLLAAADKYAL [D9C] | 1.99
YTGRAPNLIKMADNLLAAADKYAL [D9I] | 1.37
YTGRAPNLNKMADNLLAAADKYAL [D9N] | 1.65
YTGRAPNLQKMADNLLAAADKYAL [D9Q] | 2.84
YTGRAPNLPKMADNLLAAADKYAL [D9P] | 2.36
YTGRAPNLTKMADNLLAAADKYAL [D9T] | 1.85
YTGRAPNLEKMADNLLAAADKYAL [D9E] | 2.24
YTGRAPNLKKMADNLLAAADKYAL [D9K] | 2.34
YTGRAPNLDKMMDNLLAAADKYAL [A12M] | 2.64
YTGRAPNLDKMGDNLLAAADKYAL [A12G] | 2.36
YTGRAPNLDKMLDNLLAAADKYAL [A12L] | 1.53
YTGRAPNLDKMPDNLLAAADKYAL [A12P] | 2.54
YTGRAPNLDKMIDNLLAAADKYAL [A12I] | 2.87
YTGRAPNLDKMSDNLLAAADKYAL [A12S] | 2.2
YTGRAPNLDKMTDNLLAAADKYAL [A12T] | 2.97
YTGRAPNLDKMYDNLLAAADKYAL [A12Y] | 1.77
YTGRAPNLDKLADNLLAAADKYAL [M11L] | 2.44
YTGRAPNLDKNADNLLAAADKYAL [M11N] | 2.43
YTGRAPNLDKIADNLLAAADKYAL [M11I] | 2.32
YTGRAPNLDKVADNLLAAADKYAL [M11V] | 3.05
YTGRAPNLDKCADNLLAAADKYAL [M11C] | 1.55
YTGRAPNLDKPADNLLAAADKYAL [M11P] | 2.56
YTGRAPNLDKSADNLLAAADKYAL [M11S] | 2.62

Variant | protein stability index
YTGRAPNLDKQADNLLAAADKYAL [M11Q] | 2.34
YTGRAPNLDKMADNLLAAASKYAL [D20S] | 1.48
YTGRAPNLDKMADNLLAAANKYAL [D20N] | 1.3
YTGRAPNLDKMADNLLAAATKYAL [D20T] | 2.34
YTGRAPNLDKMADNLLAAAHKYAL [D20H] | 2.14
YTGRAPNLDKMADNLLAAAPKYAL [D20P] | 1.41
YTGRAPNLDKMADNLLAAAVKYAL [D20V] | 3.92
YTGRAPNLDKMADNLLAAARKYAL [D20R] | 2.57
YTGRAPNLDLMADNLLAAADKYAL [K10L] | 1.89
YTGRAPNLDQMADNLLAAADKYAL [K10Q] | 1.75
YTGRAPNLDEMADNLLAAADKYAL [K10E] | 2.23
YTGRAPNLDAMADNLLAAADKYAL [K10A] | 1.81
YTGRAPNLDGMADNLLAAADKYAL [K10G] | 2.25
YTGRAPNLDVMADNLLAAADKYAL [K10V] | 1.75
YTGRAPNLDIMADNLLAAADKYAL [K10I] | 1.49
YTGRAPNLDFMADNLLAAADKYAL [K10F] | 1.68
YTGRAPNLDHMADNLLAAADKYAL [K10H] | 1.97
YTGRAPNLDSMADNLLAAADKYAL [K10S] | 2.83
YTGRAPNLDNMADNLLAAADKYAL [K10N] | 2.6
YTGRAPNLDPMADNLLAAADKYAL [K10P] | 2.42
YTGRAPNLDKMADDLLAAADKYAL [N14D] | 2.25
YTGRAPNLDKMADKLLAAADKYAL [N14K] | 1.73
YTGRAPNLDKMADHLLAAADKYAL [N14H] | 1.94
YTGRAPNLDKMADALLAAADKYAL [N14A] | 1.69

Variant | protein stability index
YTGRAPNLDKMADVLLAAADKYAL [N14V] | 2.43
YTGRAPNLDKMADPLLAAADKYAL [N14P] | 2.2
YTGRAPNLDKMADTLLAAADKYAL [N14T] | 1.45
YTGRAPNLDKMADILLAAADKYAL [N14I] | 1.85
YTGRAPNLDKMAFNLLAAADKYAL [D13F] | 1.87
YTGRAPNLDKMANNLLAAADKYAL [D13N] | 2.46
YTGRAPNLDKMAVNLLAAADKYAL [D13V] | 1.73
YTGRAPNLDKMATNLLAAADKYAL [D13T] | 1.91
YTGRAPNLDKMARNLLAAADKYAL [D13R] | 2.66
YTGRAPNLDKMAHNLLAAADKYAL [D13H] | 1.75
YTGRAPNLDKMALNLLAAADKYAL [D13L] | 1.81
YTGRAPNLDKMAANLLAAADKYAL [D13A] | 1.34
HTGRAPNLDKMADNLLAAADKYAL [Y1H] | 3.8
ETGRAPNLDKMADNLLAAADKYAL [Y1E] | 4.07
CTGRAPNLDKMADNLLAAADKYAL [Y1C] | 3.08
ATGRAPNLDKMADNLLAAADKYAL [Y1A] | 2.15
PTGRAPNLDKMADNLLAAADKYAL [Y1P] | 3.65
WTGRAPNLDKMADNLLAAADKYAL [Y1W] | 2.94
GTGRAPNLDKMADNLLAAADKYAL [Y1G] | 4.11
LTGRAPNLDKMADNLLAAADKYAL [Y1L] | 2.63
VTGRAPNLDKMADNLLAAADKYAL [Y1V] | 1.76
YTGRAPNLDKMADNHLAAADKYAL [L15H] | 2.38
YTGRAPNLDKMADNDLAAADKYAL [L15D] | 2.83
YTGRAPNLDKMADNSLAAADKYAL [L15S] | 3.6

Variant | protein stability index
YTGRAPNLDKMADNRLAAADKYAL [L15R] | 2.43
YTGRWPNLDKMADNLLAAADKYAL [A5W] | 4.42
YTGRTPNLDKMADNLLAAADKYAL [A5T] | 2.42
YTGRFPNLDKMADNLLAAADKYAL [A5F] | 2.31
YTGRPPNLDKMADNLLAAADKYAL [A5P] | 2
YTGRKPNLDKMADNLLAAADKYAL [A5K] | 2.01
YTGRCPNLDKMADNLLAAADKYAL [A5C] | 1.87
YTGRLPNLDKMADNLLAAADKYAL [A5L] | 1.77
YTGRQPNLDKMADNLLAAADKYAL [A5Q] | 2.48
YTGRYPNLDKMADNLLAAADKYAL [A5Y] | 1.41
YTGRAPNLDKMADNLLAAADKPAL [Y22P] | 2.73
YTGRAPNLDKMADNLLAAADKLAL [Y22L] | 1.61
YTGRAPNLDKMADNLLAAADKTAL [Y22T] | 2.72
YTGRAPNLDKMADNLLAAADKGAL [Y22G] | 3.2
YTGRAPNLDKMADNLLAAADKKAL [Y22K] | 3.07
YTGRAPNLDKMADNLLAAADKSAL [Y22S] | 3.66
YTGRAPNLDKMADNLLAAADKWAL [Y22W] | 1.67
YTGRAPNLDKMADNLLLAADKYAL [A17L] | 2.34
YTGRAPNLDKMADNLLTAADKYAL [A17T] | 2.55
YTGRAPNLDKMADNLLYAADKYAL [A17Y] | 1.62
YTGRAPNLDKMADNLLHAADKYAL [A17H] | 2.08
YTGRAPNLDKMADNLLQAADKYAL [A17Q] | 2.33
